Measurements from patent US20230272117A1 (published 2023).
Positions count from the first letter of the chain named.

B1: C1.861 (antibody, V domains shown)
VH: EVQLKESGPGLVQPSQTLSLTCTVSGFSLTSNGVTWVRQPPGKGLEWIAAISSGGNIYYNSAVKSRLSISRDTSKSQVFLKMNSLQTEDTAIYFCTRARGTTTAYVMDAWGQGASVTVSS
VL: DVVLTQSPSSLAVSAGETVTINCKSSQSLLYSGNQKNYLAWYQQKPGQSPKLLIYWASTRQSGVPDRFIGSGSGTDFTLTISSVQAEDLAIYYCQQYYDVLMNMFGAGTKLEIK
B2: C1.787a (antibody, V domains shown)
VH: EVQLTESGPGLVQPSQTLSLTCTVSGFSLTSNGVSWVRQPPGKGLEWIAAISSGGSTYYNSAFKSRLSISRHTSKSQVLLNMNSLQTEDTAMYFCARHRGYYWSNWGYFDYWGQGVMVTVSS
VL: NIQLTQSPSLLSASVGDRVTLSCKGSQNINNYLAWYQQKLGEAPKLLIYKTNSLQTGIPSRFSGSGSGTDYTLTLSSLHSEDLATYYCCQYNDGYTFGAGTKLELK
B3: C1.863 (antibody, V domains shown)
VH: B2 VH with L4R, T5K, S31N, T57I, H72I, N81K, W103G, S104Y
VL: B2 VL with L4M, N30Y, N52S, T56A, G68D, L75I, D93N, L105I
B4: C1.773 (antibody, V domains shown)
VH: EIQLAQSGPELVKPGASVKMSCKASGYSFIGYFMNWVKQSHGKSLEWIGRINPYNGDTFYNQKFKGKATLTVDKSSSTAHMELRSLTSEDSALYYCTRSGWGYDVYSFDYWGQGTLVTVSS
VL: DIQMTQTPSSLSASLGDRVTISCRASQDISNYLNWYQQKPDGTVKLLIYYTSRLHSGVPSRFSGSGSGTDYSLTISNLEQEDIATYFCQQGNTLPWTFGGGTKLEIK
B5: C1.505 (antibody, V domains shown)
VH: EVQLTESGPGLVQPSQTLSLTCTVSGFSLTSNGVSWVRLPPGKGLEWIAAISSGGNIYYNSALKSRLSISRDTSKSQVFLKMNSLQTEDTAIYFCTRERGWNYPGITNGYYFDYWGQGASVTVSS
VL: DIVLTQSPSLLSASVGDRVILSCKAGQKINNYLAWYQQKLGEAPKLLIYNANSLQTGIPSRFSGSGSGTDYTLTISSLQPEDVATYFCQQYNSWYTFGAGTKLEIK
B6: C1.831.hu11 (antibody, V domains shown)
VH: EVQLQESGPGLVKPSETLSLTCTVSGFSLTSNGVSWVRQPPGKGLEWIAAISSGGNIYYNSVLKSRLTISRDTSKNQVSLKLSSVTAADTAVYYCTRERGWNYPFITNGYYFDYWGQGTLVTVSS
VL: DIQLTQSPSSLSASVGDRVTITCKAGQNINNYLAWYQQKPGKAPKLLIYNANSLQTGIPSRFSGSGSGTDYTLTISSLQPEDFATYYCQQYNSWYTFGQGTKLEIK
B7: C1.844.hu21 (antibody, V domains shown)
VH: EVQLVESGGGLIQPGGSLRLSCAVSGFSLTSNGVIWVRQPPGKGLEWIAAISSGGNIYYNSGLKSRLTISRDTSKNTVYLQMNSLRAEDTAVYYCTRARGTTTAYVMDAWGQGTLVTVSS
VL: DIVMTQSPDSLAVSLGERATINCKSSQSLLYSVNQKNYLAWYQQKPGQSPKLLIYWASTRQSGVPDRFSGSGSGTDFTLTISSLQAEDVAVYYCQQYYDTLMKMFGAGTKLELK
B8: C1.861.hu21 (antibody, V domains shown)
VH: B7 VH with I35T, G62A, L63V, Y94F, L115T
VL: DVQLTQSPSSLSASVGDRVTITCKSSQSLLYSGNQKNYLAWYQQKPGKSPKLLIYWASTRQSGVPSRFSGSGSGTDFTLTISSLQPEDVATYYCQQYYDVLMNMFGGGTKLEIK
B9: C1.851.hu15 (antibody, V domains shown)
VH: EVQLQESGPGLVKPSETLSLTCTVSGFSLTNNGVSWIRQPPGKGLEWIAAISSGGNIYYNSAFKSRLTISRDTSKNQVSLKLSSVTAADTAVYYCARHRGYYGYNWGYFDYWGQGTLVTVSS
VL: DVVMTQAPSSLSASLGERISLTCRASQDIYGSLNWFQQKPDGTIKLLIYGTSSLDSGVPKRFSGSRSGSDYSLTISSLESEDFADYYCLQYASSPYTFGGGTKLEIK
B10: C1.851.hu14 (antibody, V domains shown)
VH: B9 VH
VL: DVVMTQTPLSLPVSLGDQASISCRSSQSIVHSNGNTYLEWYLQKPGQSPKLLIYKVSNRFSGVPDRFSGSGTGTDFTLKISRVEAEDLGVYYCFQGSHVPRTFGGGTKLEIK
B11: C1.851.hu12 (antibody, V domains shown)
VH: B9 VH
VL: B6 VL with A25G, G26S, N50K, A51T, Q89Y, S93N, W94G
B12: C1.835 (antibody, V domains shown)
VH: B2 VH with T5L, S31N, I48V, I51M, S56N, T57I, N81K, W103G, S104Y
VL: B2 VL with N30Y, G57D, L75I, D93N
B13: C1.827 (antibody, V domains shown)
VH: EVQLVESGPGLVQPSQTLSLTCTVSGFSLTNNGVSWVRQPPGKGLEWIAAISNGGNIYHNSALKSRLSISRNTAKSQVLLKMNSLQTEDTAMYFCARHRGYYGYNWGYFDYWGQGASVTVSS
VL: B2 VL with L4V, N30Y, L75I, D93N
B14: C1.831 (antibody, V domains shown)
VH: B5 VH with L39Q, A62V, N83S, L85V, G105F, A119V, S120M
VL: B5 VL with D1E, V3M, I20T, K28N

The binders below were run against T1, cynomolgus monkey ABCC1 (UniProt Q864R9 1-1531) (assay: FACS titration on C6-cC1 cells).
T1 sequence (Q864R9 whole entry): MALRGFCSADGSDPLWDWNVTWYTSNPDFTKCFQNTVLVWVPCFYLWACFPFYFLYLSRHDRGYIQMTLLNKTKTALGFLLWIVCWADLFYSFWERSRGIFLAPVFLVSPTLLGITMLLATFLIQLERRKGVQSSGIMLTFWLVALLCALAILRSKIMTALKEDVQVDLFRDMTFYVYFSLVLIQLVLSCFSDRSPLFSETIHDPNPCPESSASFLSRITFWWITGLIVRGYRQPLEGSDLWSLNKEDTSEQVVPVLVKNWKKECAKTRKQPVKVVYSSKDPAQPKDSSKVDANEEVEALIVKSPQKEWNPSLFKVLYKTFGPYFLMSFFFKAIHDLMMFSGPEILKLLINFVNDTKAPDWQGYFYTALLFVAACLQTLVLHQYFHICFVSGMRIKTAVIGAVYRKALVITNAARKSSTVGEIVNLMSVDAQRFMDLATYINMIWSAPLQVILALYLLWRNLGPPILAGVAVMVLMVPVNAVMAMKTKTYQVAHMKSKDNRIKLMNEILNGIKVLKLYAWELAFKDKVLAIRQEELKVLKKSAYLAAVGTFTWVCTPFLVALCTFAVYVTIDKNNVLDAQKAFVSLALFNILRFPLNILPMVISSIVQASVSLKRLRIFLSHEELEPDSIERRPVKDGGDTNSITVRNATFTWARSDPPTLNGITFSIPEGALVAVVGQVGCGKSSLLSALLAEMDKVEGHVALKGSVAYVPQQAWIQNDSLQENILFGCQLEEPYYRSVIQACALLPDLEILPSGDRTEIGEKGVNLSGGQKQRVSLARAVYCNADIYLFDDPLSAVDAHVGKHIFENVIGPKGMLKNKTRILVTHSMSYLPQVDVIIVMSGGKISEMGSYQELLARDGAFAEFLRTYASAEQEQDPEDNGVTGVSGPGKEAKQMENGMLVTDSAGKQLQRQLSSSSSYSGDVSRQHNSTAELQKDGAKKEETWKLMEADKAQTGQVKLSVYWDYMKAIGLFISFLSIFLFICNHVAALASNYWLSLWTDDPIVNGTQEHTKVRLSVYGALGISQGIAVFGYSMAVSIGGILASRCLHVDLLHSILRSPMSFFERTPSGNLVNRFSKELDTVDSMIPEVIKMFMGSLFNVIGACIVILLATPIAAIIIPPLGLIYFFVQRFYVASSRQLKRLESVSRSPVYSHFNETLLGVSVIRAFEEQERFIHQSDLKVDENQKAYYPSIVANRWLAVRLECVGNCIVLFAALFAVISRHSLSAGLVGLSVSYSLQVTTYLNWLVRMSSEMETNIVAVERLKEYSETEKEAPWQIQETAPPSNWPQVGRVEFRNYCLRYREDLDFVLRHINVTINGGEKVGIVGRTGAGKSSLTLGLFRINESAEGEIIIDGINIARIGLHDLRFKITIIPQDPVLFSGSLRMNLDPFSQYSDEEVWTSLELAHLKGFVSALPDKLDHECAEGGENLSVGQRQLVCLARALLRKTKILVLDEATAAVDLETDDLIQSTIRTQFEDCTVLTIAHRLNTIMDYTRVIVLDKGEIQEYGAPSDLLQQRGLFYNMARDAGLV

Binder	Kd [nM]
B1	28
B2	27.6
B3	27.3
B4	4.6

The binders below were run against T2, human ATP Binding Cassette Subfamily C Member 1 (ABCC1) (UniProt P33527 1-1531) (assay: FACS titration on C6 cells).

Kd [nM]	Binder
6.5	B4
81.2	B5

The binders below were run against T1, cynomolgus monkey ABCC1 (assay: FACS titration on C6-cC1 cells; C6 cells).

Binder	Kd [nM]
B6	11
B7	11
B8	11
B4	4

Each binder was assayed against T1, cynomolgus monkey ABCC1 (assay: FACS titration on C6 cells; C6 cells).

Kd [nM]	Binder
60.1	B1
19.1	B4

The binders below were run against T2, human ATP Binding Cassette Subfamily C … (assay: FACS titration on C6-hC1 cells).

Kd [nM]	Binder
14.7	B1
7.8	B2
11.7	B3
3.7	B4

Target: T2, human ATP Binding Cassette Subfamily C …
Experiment: FACS titration on C6-hC1 cells
Remark: another data set of the same source

Kd [nM]	Binder
12.7	B4

What follows are binders tested against T1, cynomolgus monkey ABCC1 (assay: FACS cell binding).

Kd [nM]	Binder
210	B9
2030	B10
181	B11

These binders were tested against T2, human ATP Binding Cassette Subfamily C … (assay: FACS cell binding).

Kd [nM]	Binder
119	B9
148	B10
153	B11

What follows are binders tested against T1, cynomolgus monkey ABCC1 (assay: FACS titration on C6 cells).

Kd [nM]	Binder
575	B12
67.3	B13
2.7	B4
8.7	B14

Target: T2, human ATP Binding Cassette Subfamily C …
Experiment: FACS titration on C6 cells
Remark: another data set of the same source

Kd [nM]	Binder
144	B12
134	B13
1.9	B4
35.2	B5
11.4	B14

Target: T1, cynomolgus monkey ABCC1
Experiment: FACS cell binding
Remark: another data set of the same source

Kd [nM]	Binder
27	B6
83	B7
37	B8

Target: T2, human ATP Binding Cassette Subfamily C …
Experiment: FACS cell binding
Remark: another data set of the same source

Kd [nM]	Binder
21	B6
103	B7
38	B8

What follows are binders tested against T2, human ATP Binding Cassette Subfamily C … (assay: FACS titration on H69AR cells).

Kd [nM]	Binder
4.3	B2
2.5	B4
7.1	B5

Target: T1, cynomolgus monkey ABCC1
Experiment: FACS titration on C6-cC1 cells
Remark: another data set of the same source

Binder	Kd [nM]
B4	5.9
